Measurements: PMC11687654

How the values were obtained:
[1] = biological target: TDP-43mutRRM-flag (pcDNA3.1 construct) (UniProt Q13148); experiment: AlphaScreen or HTRF; proximity AlphaLISA on lysates of co-transfected HEK293FT cells, 72 hr after transfection; anti-FLAG acceptor beads, biotinylated Ataxin-2 antibody and streptavidin donor beads; room temperature
[2] = biological target: TDP-43-flag (pcDNA3.1 construct) (UniProt Q13148); experiment: as above
Sequence of TDP-43-flag (pcDNA3.1 construct) (Q13148 whole entry): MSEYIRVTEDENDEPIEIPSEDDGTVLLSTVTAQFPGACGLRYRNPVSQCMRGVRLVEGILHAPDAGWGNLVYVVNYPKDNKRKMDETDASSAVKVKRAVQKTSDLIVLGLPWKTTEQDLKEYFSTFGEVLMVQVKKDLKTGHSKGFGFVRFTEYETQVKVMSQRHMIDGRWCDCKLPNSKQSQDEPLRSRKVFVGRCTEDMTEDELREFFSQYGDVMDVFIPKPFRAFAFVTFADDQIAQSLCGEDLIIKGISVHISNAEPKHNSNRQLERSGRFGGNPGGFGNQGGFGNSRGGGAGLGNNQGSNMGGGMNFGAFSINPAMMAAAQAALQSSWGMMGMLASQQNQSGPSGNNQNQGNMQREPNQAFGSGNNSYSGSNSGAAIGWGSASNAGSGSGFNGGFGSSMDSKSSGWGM

Sequence of Ataxin-2 (ATXN2, pcDNA3.1 construct) (Q99700 whole entry): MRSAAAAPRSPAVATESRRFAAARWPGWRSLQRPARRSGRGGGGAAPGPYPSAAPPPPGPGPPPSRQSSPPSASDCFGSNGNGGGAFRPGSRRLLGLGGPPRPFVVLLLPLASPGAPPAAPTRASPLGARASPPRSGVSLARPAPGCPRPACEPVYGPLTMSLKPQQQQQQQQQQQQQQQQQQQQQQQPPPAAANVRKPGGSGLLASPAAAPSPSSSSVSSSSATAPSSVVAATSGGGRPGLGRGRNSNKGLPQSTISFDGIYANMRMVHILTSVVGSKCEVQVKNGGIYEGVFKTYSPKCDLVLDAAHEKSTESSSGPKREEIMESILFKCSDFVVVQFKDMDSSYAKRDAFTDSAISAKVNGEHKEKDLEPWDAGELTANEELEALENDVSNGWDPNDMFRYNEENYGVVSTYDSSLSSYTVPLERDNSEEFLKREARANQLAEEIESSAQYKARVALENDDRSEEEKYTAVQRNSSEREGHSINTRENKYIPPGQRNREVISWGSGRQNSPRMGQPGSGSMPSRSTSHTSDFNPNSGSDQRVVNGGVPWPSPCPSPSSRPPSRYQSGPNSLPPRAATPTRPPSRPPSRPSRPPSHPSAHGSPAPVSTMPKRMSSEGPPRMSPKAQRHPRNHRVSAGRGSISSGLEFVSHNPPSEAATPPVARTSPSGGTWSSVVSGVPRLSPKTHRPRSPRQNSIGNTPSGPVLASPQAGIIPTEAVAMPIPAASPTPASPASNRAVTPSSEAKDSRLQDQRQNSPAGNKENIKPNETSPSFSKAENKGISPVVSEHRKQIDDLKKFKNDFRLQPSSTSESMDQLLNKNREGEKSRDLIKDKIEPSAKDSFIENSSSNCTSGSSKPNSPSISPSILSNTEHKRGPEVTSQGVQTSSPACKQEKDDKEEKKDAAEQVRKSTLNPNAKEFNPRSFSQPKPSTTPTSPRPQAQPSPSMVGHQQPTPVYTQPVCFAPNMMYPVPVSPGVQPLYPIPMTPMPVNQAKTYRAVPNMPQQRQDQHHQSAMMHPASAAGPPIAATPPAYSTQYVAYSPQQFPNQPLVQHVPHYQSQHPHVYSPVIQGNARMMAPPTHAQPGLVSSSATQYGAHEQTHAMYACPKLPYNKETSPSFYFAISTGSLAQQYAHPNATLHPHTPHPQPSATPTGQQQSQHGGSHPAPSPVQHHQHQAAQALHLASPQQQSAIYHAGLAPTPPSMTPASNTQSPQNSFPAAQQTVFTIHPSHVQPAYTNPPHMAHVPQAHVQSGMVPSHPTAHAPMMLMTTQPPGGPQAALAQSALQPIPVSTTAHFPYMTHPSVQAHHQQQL
Sequence of TDP-43mutRRM-flag (pcDNA3.1 construct) (Q13148 whole entry): as the sequence (Q13148 whole entry) above

Substance: Ataxin-2 (ATXN2, pcDNA3.1 construct) (from UniProt Q99700 1-1313) (natural protein)
- fold increase of the AlphaLISA interaction signal [1]: 2 fold
- fold increase of the AlphaLISA interaction signal [2]: 22 fold
